From paper PMC9669022

Legend:
[1] = target: porcine brain tubulin (αβ-tubulin dimer) (porcine) (UniProt Q2XVP4)
[2] = target: porcine brain tubulin (αβ-tubulin dimer) (porcine) (UniProt Q2XVP4); remark: listed apart in the source
[3] = target: porcine brain tubulin (αβ-tubulin dimer) (porcine) (UniProt Q2XVP4); remark: listed apart in the source

Pbkinesin-8B-MD-L12^KIF5B (domain or fragment)
KmMT of the GMPCPP-MT-stimulated ATPase, fold change against WT [1]: 20 fold

Pbkinesin-8B-MD (domain or fragment)
Km of the MT-stimulated ATPase (GMPCPP-MTs, NADH-coupled assay) [2]: 2.5 µM
Km of the tubulin-stimulated ATPase (unpolymerised tubulin dimer, NADH-coupled assay) [3]: 7.6 µM

Pbkinesin-8B-MD-L2^KIF5B (domain or fragment)
Km of the GMPCPP-MT-stimulated ATPase, fold change against WT [1]: 2 fold
